Key:
Test in all cases: holdup assay
Set-up in all cases: key: below the threshold = too weak to quantify, mostly under pKd 3.1 to 4
APBA1_2, Q02410 = biological target: T1, APBA1_2, Q02410
T1 sequence (Q02410 742-832, limits assumed, looked up): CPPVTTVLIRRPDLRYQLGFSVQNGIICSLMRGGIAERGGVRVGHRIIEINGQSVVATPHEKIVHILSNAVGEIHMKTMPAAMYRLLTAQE

DLG4_3, P78352 = biological target: DLG4_3, P78352
DLG5_1, Q8TDM6 = biological target: DLG5_1, Q8TDM6
FRMPD2_2, Q68DX3 = biological target: FRMPD2_2, Q68DX3
GRIP1_7, Q9Y3R0 = biological target: T2, GRIP1_7, Q9Y3R0
T2 sequence (Q9Y3R0 999-1096, limits assumed, looked up): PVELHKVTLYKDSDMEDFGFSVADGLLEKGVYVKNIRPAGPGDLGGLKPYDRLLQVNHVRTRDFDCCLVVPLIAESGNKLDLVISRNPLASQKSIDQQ

IL16_1, Q14005 = biological target: IL16_1, Q14005
Chain of IL16_1, Q14005 (Q14005 210-306): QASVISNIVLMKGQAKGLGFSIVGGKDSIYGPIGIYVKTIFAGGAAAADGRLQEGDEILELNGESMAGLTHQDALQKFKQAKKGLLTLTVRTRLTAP

Inadl_4, Q8NI35 = biological target: Inadl_4, Q8NI35
Chain of Inadl_4, Q8NI35 (Q8NI35 547-651): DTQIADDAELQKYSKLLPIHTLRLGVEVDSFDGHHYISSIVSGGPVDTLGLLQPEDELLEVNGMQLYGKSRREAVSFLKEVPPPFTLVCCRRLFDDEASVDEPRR

Inadl_6, Q8NI35 = biological target: Inadl_6, Q8NI35
Chain of Inadl_6, Q8NI35 (Q8NI35 1058-1167): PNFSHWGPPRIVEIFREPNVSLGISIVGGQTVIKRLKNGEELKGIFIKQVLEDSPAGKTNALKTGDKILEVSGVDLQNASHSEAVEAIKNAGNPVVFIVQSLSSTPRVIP

LIN7B, Q9HAP6 = biological target: T3, LIN7B, Q9HAP6
T3 sequence (Q9HAP6 88-185, limits assumed, looked up): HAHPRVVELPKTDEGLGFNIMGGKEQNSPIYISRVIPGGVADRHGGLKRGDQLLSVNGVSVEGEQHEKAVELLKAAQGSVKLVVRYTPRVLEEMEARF

LNX1_1, Q8TBB1 = biological target: LNX1_1, Q8TBB1
Chain of LNX1_1, Q8TBB1 (Q8TBB1 261-371): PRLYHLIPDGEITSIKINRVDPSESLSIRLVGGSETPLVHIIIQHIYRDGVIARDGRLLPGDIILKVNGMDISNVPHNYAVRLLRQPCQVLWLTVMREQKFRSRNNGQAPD

MAGI1_2, Q96QZ7 = biological target: MAGI1_2, Q96QZ7
Chain of MAGI1_2, Q96QZ7 (Q96QZ7 456-580): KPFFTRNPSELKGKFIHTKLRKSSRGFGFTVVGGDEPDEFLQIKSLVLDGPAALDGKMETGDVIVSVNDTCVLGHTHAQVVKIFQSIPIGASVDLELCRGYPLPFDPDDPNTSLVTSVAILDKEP

MAGI2_6, Q86UL8 = biological target: MAGI2_6, Q86UL8
Chain of MAGI2_6, Q86UL8 (Q86UL8 1141-1229): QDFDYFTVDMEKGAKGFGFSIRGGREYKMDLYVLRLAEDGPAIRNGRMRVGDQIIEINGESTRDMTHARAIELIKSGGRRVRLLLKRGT

MPDZ_10, O75970 = biological target: T4, MPDZ_10, O75970
T4 sequence (O75970 1624-1722, limits assumed, looked up): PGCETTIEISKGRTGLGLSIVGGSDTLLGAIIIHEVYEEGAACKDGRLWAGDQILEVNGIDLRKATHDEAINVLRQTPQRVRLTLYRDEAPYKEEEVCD

MPP2, Q14168 = biological target: T5, MPP2, Q14168
T5 sequence (Q14168 180-250, limits assumed, looked up): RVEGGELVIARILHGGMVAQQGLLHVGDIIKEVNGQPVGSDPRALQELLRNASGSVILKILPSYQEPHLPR

MPP7, Q5T2T1 = biological target: T6, MPP7, Q5T2T1
T6 sequence (Q5T2T1 134-230, limits assumed, looked up): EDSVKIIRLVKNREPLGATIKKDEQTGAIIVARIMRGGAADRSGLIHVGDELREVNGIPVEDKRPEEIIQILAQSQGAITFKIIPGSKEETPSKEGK

NHERF3_3, Q5T2W1 = biological target: T7, NHERF3_3, Q5T2W1
T7 sequence (Q5T2W1 238-333, limits assumed, looked up): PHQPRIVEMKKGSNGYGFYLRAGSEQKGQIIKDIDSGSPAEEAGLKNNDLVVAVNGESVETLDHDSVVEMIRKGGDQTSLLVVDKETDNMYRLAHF

NHERF4_1, Q86UT5-2 = biological target: NHERF4_1, Q86UT5-2
Chain of NHERF4_1, Q86UT5-2 (Q86UT5 other isoform, or with tags, fused parts or gaps): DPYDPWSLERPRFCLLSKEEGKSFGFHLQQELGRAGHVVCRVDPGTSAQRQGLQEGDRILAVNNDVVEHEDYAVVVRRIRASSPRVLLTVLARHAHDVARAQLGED

NHERF4_4, Q86UT5 = biological target: NHERF4_4, Q86UT5
Chain of NHERF4_4, Q86UT5 (Q86UT5 464-550): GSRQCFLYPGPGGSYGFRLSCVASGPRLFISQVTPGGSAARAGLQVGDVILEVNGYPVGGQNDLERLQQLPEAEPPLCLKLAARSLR

PICK1, Q9NRD5 = biological target: PICK1, Q9NRD5
Chain of PICK1, Q9NRD5 (Q9NRD5 17-115): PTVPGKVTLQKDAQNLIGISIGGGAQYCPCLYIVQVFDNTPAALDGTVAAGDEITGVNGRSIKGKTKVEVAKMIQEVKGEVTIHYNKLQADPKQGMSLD

PTPN13_1, Q12923 = biological target: T8, PTPN13_1, Q12923
T8 sequence (Q12923 1088-1188, limits assumed, looked up): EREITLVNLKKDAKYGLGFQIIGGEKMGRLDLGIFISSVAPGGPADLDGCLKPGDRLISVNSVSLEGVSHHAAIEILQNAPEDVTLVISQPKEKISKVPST

PTPN3, P26045 = biological target: PTPN3, P26045
Chain of PTPN3, P26045 (P26045 505-587): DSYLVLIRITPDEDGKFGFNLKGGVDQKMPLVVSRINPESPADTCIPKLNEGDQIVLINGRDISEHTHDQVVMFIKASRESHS

RAPGEF6, Q8TEU7 = biological target: T9, RAPGEF6, Q8TEU7
T9 sequence (Q8TEU7 525-625, limits assumed, looked up): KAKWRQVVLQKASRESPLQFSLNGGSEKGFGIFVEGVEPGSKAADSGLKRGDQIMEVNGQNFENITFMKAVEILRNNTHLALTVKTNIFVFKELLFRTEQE

SHANK1, Q9Y566 = biological target: T10, SHANK1, Q9Y566
T10 sequence (Q9Y566 658-767, limits assumed, looked up): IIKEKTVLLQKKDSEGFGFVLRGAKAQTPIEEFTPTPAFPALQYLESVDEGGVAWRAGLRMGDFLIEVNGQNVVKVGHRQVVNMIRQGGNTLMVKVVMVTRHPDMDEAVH

SNTA1, Q13424 = biological target: T11, SNTA1, Q13424
T11 sequence (Q13424 82-180, limits assumed, looked up): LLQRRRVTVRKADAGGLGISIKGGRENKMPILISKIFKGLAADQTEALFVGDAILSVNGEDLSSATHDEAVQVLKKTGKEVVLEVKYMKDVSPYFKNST

SNTG1, Q9NSN8 = biological target: T12, SNTG1, Q9NSN8
T12 sequence (Q9NSN8 52-150, limits assumed, looked up): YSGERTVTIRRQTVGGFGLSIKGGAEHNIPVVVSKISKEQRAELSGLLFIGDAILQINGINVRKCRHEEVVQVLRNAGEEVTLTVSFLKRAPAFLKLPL

SNX27, Q96L92 = biological target: SNX27, Q96L92
[1] = plain residues with an end cap or a label only (N-terminal biotin on a linker: ahx)
[2] = plain residues with an end cap or a label only (N-terminal biotin on a linker: ttds)

Chain of DLG4_3, P78352 (P78352 306-403): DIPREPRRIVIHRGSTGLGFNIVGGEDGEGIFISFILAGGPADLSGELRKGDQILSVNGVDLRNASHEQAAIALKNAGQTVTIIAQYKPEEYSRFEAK
Chain of DLG5_1, Q8TDM6 (Q8TDM6 617-713): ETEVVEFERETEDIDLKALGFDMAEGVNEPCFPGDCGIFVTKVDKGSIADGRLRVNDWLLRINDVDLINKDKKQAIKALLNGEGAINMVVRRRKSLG
Chain of FRMPD2_2, Q68DX3 (Q68DX3 944-1038): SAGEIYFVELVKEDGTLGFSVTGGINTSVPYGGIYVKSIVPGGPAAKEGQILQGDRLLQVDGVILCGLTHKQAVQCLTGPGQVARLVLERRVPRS

YNSFLSVTTV [PDZRN3, Q9UPQ7]
pKd (APBA1_2, Q02410; [1]): below the threshold
pKd (DLG4_3, P78352; [1]): below the threshold
pKd (DLG5_1, Q8TDM6; [1]): below the threshold
pKd (FRMPD2_2, Q68DX3; [1]): 3.73
pKd (GRIP1_7, Q9Y3R0; [1]): below the threshold
pKd (IL16_1, Q14005; [1]): below the threshold
pKd (Inadl_4, Q8NI35; [1]): below the threshold
pKd (Inadl_6, Q8NI35; [1]): below the threshold
pKd (LIN7B, Q9HAP6; [1]): below the threshold
pKd (LNX1_1, Q8TBB1; [1]): 3.8
pKd (MAGI1_2, Q96QZ7; [1]): 3.99
pKd (MAGI2_6, Q86UL8; [1]): 3.6
pKd (MPDZ_10, O75970; [1]): 3.96
pKd (MPP2, Q14168; [1]): below the threshold
pKd (MPP7, Q5T2T1; [1]): below the threshold
pKd (NHERF3_3, Q5T2W1; [1]): below the threshold
pKd (NHERF4_1, Q86UT5-2; [1]): below the threshold
pKd (NHERF4_4, Q86UT5; [1]): 3.49
pKd (PICK1, Q9NRD5; [1]): below the threshold
pKd (PTPN13_1, Q12923; [1]): below the threshold
pKd (PTPN3, P26045; [1]): 3.48
pKd (RAPGEF6, Q8TEU7; [1]): below the threshold
pKd (SHANK1, Q9Y566; [1]): 3.66
pKd (SNTA1, Q13424; [1]): 3.76
pKd (SNTG1, Q9NSN8; [1]): 3.79
pKd (SNX27, Q96L92; [1]): 4.49

SRSRRRETAL [HPV33-E6, P06427]
pKd (APBA1_2, Q02410; [2]): below the threshold
pKd (DLG4_3, P78352; [2]): 5.32
pKd (DLG5_1, Q8TDM6; [2]): below the threshold
pKd (FRMPD2_2, Q68DX3; [2]): below the threshold
pKd (GRIP1_7, Q9Y3R0; [2]): below the threshold
pKd (IL16_1, Q14005; [2]): below the threshold
pKd (Inadl_4, Q8NI35; [2]): below the threshold
pKd (Inadl_6, Q8NI35; [2]): 3.7
pKd (LIN7B, Q9HAP6; [2]): 3.72
pKd (LNX1_1, Q8TBB1; [2]): below the threshold
pKd (MAGI1_2, Q96QZ7; [2]): 5.67
pKd (MAGI2_6, Q86UL8; [2]): below the threshold
pKd (MPDZ_10, O75970; [2]): below the threshold
pKd (MPP2, Q14168; [2]): below the threshold
pKd (MPP7, Q5T2T1; [2]): below the threshold
pKd (NHERF3_3, Q5T2W1; [2]): below the threshold
pKd (NHERF4_1, Q86UT5-2; [2]): 4.42
pKd (NHERF4_4, Q86UT5; [2]): below the threshold
pKd (PICK1, Q9NRD5; [2]): below the threshold
pKd (PTPN13_1, Q12923; [2]): below the threshold
pKd (PTPN3, P26045; [2]): 5.01
pKd (RAPGEF6, Q8TEU7; [2]): below the threshold
pKd (SHANK1, Q9Y566; [2]): 3.51
pKd (SNTA1, Q13424; [2]): 4.66
pKd (SNTG1, Q9NSN8; [2]): 3.62
pKd (SNX27, Q96L92; [2]): 4.91

PKMKLNETSF [SHKBP1, Q8TBC3]
pKd (APBA1_2, Q02410; [1]): below the threshold
pKd (DLG4_3, P78352; [1]): below the threshold
pKd (DLG5_1, Q8TDM6; [1]): below the threshold
pKd (FRMPD2_2, Q68DX3; [1]): below the threshold
pKd (GRIP1_7, Q9Y3R0; [1]): below the threshold
pKd (IL16_1, Q14005; [1]): below the threshold
pKd (Inadl_4, Q8NI35; [1]): below the threshold
pKd (Inadl_6, Q8NI35; [1]): below the threshold
pKd (LIN7B, Q9HAP6; [1]): below the threshold
pKd (LNX1_1, Q8TBB1; [1]): below the threshold
pKd (MAGI1_2, Q96QZ7; [1]): below the threshold
pKd (MAGI2_6, Q86UL8; [1]): 3.54
pKd (MPDZ_10, O75970; [1]): below the threshold
pKd (MPP2, Q14168; [1]): below the threshold
pKd (MPP7, Q5T2T1; [1]): below the threshold
pKd (NHERF3_3, Q5T2W1; [1]): below the threshold
pKd (NHERF4_1, Q86UT5-2; [1]): 3.73
pKd (NHERF4_4, Q86UT5; [1]): below the threshold
pKd (PICK1, Q9NRD5; [1]): below the threshold
pKd (PTPN13_1, Q12923; [1]): below the threshold
pKd (PTPN3, P26045; [1]): 4.68
pKd (RAPGEF6, Q8TEU7; [1]): below the threshold
pKd (SHANK1, Q9Y566; [1]): 4.21
pKd (SNTA1, Q13424; [1]): below the threshold
pKd (SNTG1, Q9NSN8; [1]): 3.68
pKd (SNX27, Q96L92; [1]): 5.54

PFRSRSPSEV [GPR6, P46095]
pKd (APBA1_2, Q02410; [2]): 3.83
pKd (DLG4_3, P78352; [2]): below the threshold
pKd (DLG5_1, Q8TDM6; [2]): below the threshold
pKd (FRMPD2_2, Q68DX3; [2]): below the threshold
pKd (GRIP1_7, Q9Y3R0; [2]): 3.63
pKd (IL16_1, Q14005; [2]): below the threshold
pKd (Inadl_4, Q8NI35; [2]): below the threshold
pKd (Inadl_6, Q8NI35; [2]): below the threshold
pKd (LIN7B, Q9HAP6; [2]): below the threshold
pKd (LNX1_1, Q8TBB1; [2]): below the threshold
pKd (MAGI1_2, Q96QZ7; [2]): below the threshold
pKd (MAGI2_6, Q86UL8; [2]): below the threshold
pKd (MPDZ_10, O75970; [2]): below the threshold
pKd (MPP2, Q14168; [2]): below the threshold
pKd (MPP7, Q5T2T1; [2]): below the threshold
pKd (NHERF3_3, Q5T2W1; [2]): below the threshold
pKd (NHERF4_1, Q86UT5-2; [2]): below the threshold
pKd (NHERF4_4, Q86UT5; [2]): below the threshold
pKd (PICK1, Q9NRD5; [2]): below the threshold
pKd (PTPN13_1, Q12923; [2]): below the threshold
pKd (PTPN3, P26045; [2]): 3.95
pKd (RAPGEF6, Q8TEU7; [2]): below the threshold
pKd (SHANK1, Q9Y566; [2]): below the threshold
pKd (SNTA1, Q13424; [2]): below the threshold
pKd (SNTG1, Q9NSN8; [2]): below the threshold
pKd (SNX27, Q96L92; [2]): below the threshold

SHSSKGETAV [FZD7, O75084]
pKd (APBA1_2, Q02410; [2]): 3.8
pKd (DLG4_3, P78352; [2]): 4.02
pKd (DLG5_1, Q8TDM6; [2]): below the threshold
pKd (FRMPD2_2, Q68DX3; [2]): 3.81
pKd (GRIP1_7, Q9Y3R0; [2]): below the threshold
pKd (IL16_1, Q14005; [2]): 3.66
pKd (Inadl_4, Q8NI35; [2]): below the threshold
pKd (Inadl_6, Q8NI35; [2]): below the threshold
pKd (LIN7B, Q9HAP6; [2]): below the threshold
pKd (LNX1_1, Q8TBB1; [2]): below the threshold
pKd (MAGI1_2, Q96QZ7; [2]): 3.9
pKd (MAGI2_6, Q86UL8; [2]): 4.43
pKd (MPDZ_10, O75970; [2]): below the threshold
pKd (MPP2, Q14168; [2]): below the threshold
pKd (MPP7, Q5T2T1; [2]): below the threshold
pKd (NHERF3_3, Q5T2W1; [2]): below the threshold
pKd (NHERF4_1, Q86UT5-2; [2]): below the threshold
pKd (NHERF4_4, Q86UT5; [2]): below the threshold
pKd (PICK1, Q9NRD5; [2]): below the threshold
pKd (PTPN13_1, Q12923; [2]): below the threshold
pKd (PTPN3, P26045; [2]): 4.84
pKd (RAPGEF6, Q8TEU7; [2]): below the threshold
pKd (SHANK1, Q9Y566; [2]): below the threshold
pKd (SNTA1, Q13424; [2]): 4.34
pKd (SNTG1, Q9NSN8; [2]): 4.32
pKd (SNX27, Q96L92; [2]): 4.8

Source: publication PMC9482650, “Quantitative fragmentomics allow affinity mapping of interactomes” (Nature Communications, 2022)
